Assay: soluble on expression in E. coli; label from the status in PepcDB or PDB records

Sequence	soluble on expression in E. coli
RTDTIMVVNVGNHAKKIKMVSFMRDTLINIPGYSYNDNSYDLKLNSAFNLGEQEDHHGAEYVRRALKHNFDIDIKYYVMVDFETFAEAIDTLFPNGVKIDAKFATVGGVAVDSVEVPDDLRMKNGVVPNQTIEVGEQRMDGRTLLNYARFRKDDEGDFGRTVRQQQVMSAVMSQIKD	not soluble
MTALISISLLLVTFAGAAEMCAPVTQHSTPQSDVPSTVTITFHKLETSTTTKDEILNAIRTSHPDVHATGEPIDKKSIKVTLTAVSCVTAMKLAEEVLNAGTPVVLNAYAMLCDGEISTNIKP	soluble
MSRVGVMVLGPAGAGKSTFCNSIISHMQTVGRRAHIVNLDPAAEATKYEFTIDIRDLISLDDVMEEMDLGPNGALIYCFEYLLKNLDWLDEEIGDFNDEYLIFDCPGQIELYTHIPVLPNIVRHLTQQLNFNLCATYLLEAPFVIDSSKFFSGALSAMSAMILLELPHINVLSKLDLIKGDINKKKLKRFLNPDAMLLMETEGMNQASNPKFLRLNQCIANLVDDFGMVQFLPLESNNPDSIETILSYVDDITQWAEGQEQKEPNDQIDVEE	soluble
MGSDKIHHHHHHMSRTLHAQTHAWLKVFAISARHLSFTRAAEELHVTTGAVSQQIKQLETRLGFKLFRRLPRRLELTDEGQRLAAVVDQAYDAVGQEVRRLRTGVMSGVLRLRCVPSFLAKWLMPRLTRLQARFPDIELHVASEDSNLSLREGEFELAIDLNDGRYAGFQITTLMDEEIFAVCSPQLLRRRPPLVRPDDLGYYPLLHDVTAWRGSHDYAEWEHYLHALGAASVNVQRGYTFNRNHLTVEAAIAGMGVAIARRTLITNELDTGALIAPFAGTVATGKSYGLVYHPGALDDRRVRAVHDWIVEEAARSTAH	not soluble
MTTCLLDIDQQQSVLGAGYHEPRAYSPYGGMRVVPVSALAFCGQHLDPLTGSYPLGNGHRFYRPSLRRFISPDVLSPFGKGGLNAYAYCQGDPVNFADPSGRFPAIIAPVRNLVTGVINLGISAVKMYRNYRTGRDFALNSGYPASRSGVFTYGTSEHAVARWSVADKVVSAAGGISASLSIGTATARLITPESEVLAWVDFGVASFATVLSAYELYGLATSSAERRYPIQPVAYEIRTGVQPLEHHHHHH	soluble
MRVIFMRQVTKSKKIKILPYPEWLVKAGMSKGIDHDRQHLGIILAAGEMIKVRQVNAEYKEKLKLYLLNDNKNTQRSISFNTDWIELSVDAISVPFINTPYSDGIIPEIVFEYPDTSKLLPVYEKGEDESIFFESWDKQNAEFGVVESEYVIILIPEVSKDRLKSFSTSGGIDTVLGFYQDIFSFNNSLAGLSFEPQRYSDGNTRNRYFAKADKGGGGAAYYSNNWIASSSGSINTFWLSPNATNWGCLHEIAHGYQGGFIDDKYFSTREVWNNIYAACYQDVMLGAEKFNKGWLYNFGKQKEVEKSILNNINNGKEVNAWGERSKLYFIMLMLEKAGVNCFTHFNQIYRERKNTDQSVGSVLDMLSNSFATVENRVDVTLFLQMVGGHISKNQYQRNLFSHAKAVYPLNQLLQGDELTAVKKTLDLNSELSLVDVDSIEFTDIKSNLTLQFSIDDFAQIYGEELLILNGDNYVYNQSIMDKKQTLYNLPVGAYTLRIPTGRNKKYAPQINYLIVKNEDSQTQVDFVHRIGSPIVSQKISLQGLNDYTFATIFFDQENDTVSVDITKTKPHYHFPGMYARIRIKDKDNNELLNEVITGTNQSLSKNDFPLSSCYVIDIFHKEPGRVKLTPAYKGVIDNKSSYNEFIITPYGLQNIKLNNDPKVFLLENIKSAAEMLRSHPIMWHANFSEAKDNIYLAIDIFPSPQKEGLLEQYADCISSYYEKPNEDLGNAFSFIFKGINDREFLTTKLNLVTKKLEVKIVSGTPHSGFKRTYAVLRYFNADGNELLNLDIIGSKKQAGQEWVFPISGYGGEKLYLQHVEPKNRLVITNIMQGIRLSSRTSIQTYEIESLGLSRCT	not soluble
MTKASDAVKGIINSNNIYTLLLNTGLVNYTKLAREIKSQVDFLTGKKVKINTIVKALTNIEIKSKPKDILLILKQSILTLEYNYKEITTENRNKIPDDAILVIKESNGYSAIIKTTDGNSLVIAKILLPPGSCTTAGITLLITEFLEINGVSVRNIYRLSKEIWIIVDSESAGKAADALNRLLYKSNDRESSPVSLVD	not soluble
MPQFETHRLVKHSPDRMYDLVADVEKYPQFLPLCEALSVRSRKERDGKVLLVADMTVGYKAIRETFTTQVLLNPAERAIDVKYIDGPFRYLDNRWRFEAAENGGTTIHFFIDYEFKNRLLGAVMGSMFDRAFRMFAEAFETRADKIYTDPALEHHHHHH	soluble
MHHHHHHMGLELYLDLLSQPCRAVYIFAKKNDIPFELRIVDLIKGQHLSDAFAQVNPLKKVPALKDGDFTLTESVAILLYLTRKYKVPDYWYPQDLQARARVDEYLAWQHTTLRRSCLRALWHKVMFPVFLGEPVSPQTLAATLAELDVTLQLLEDKFLQNKAFLTGPHISLADLVAITELMHPVGAGCQVFEGRPKLATWRQRVEAAVGEDLFQEAHEVILKAKDFPPADPTIKQKLMPWVLAMIR	soluble
MWPDNRIARDAHYLYRYDRHGRLTEKTDLIPEGVIRTDDERTHRYHYDSQHRLVHYTRTQYAEPLVESRYLYDPLGRRVAKRVWRRERDLTGWMSLSRKPQVTWYGWDGDRLTTIQNDRTRIQTIYQPGSFTPLIRVETATGELAKTQRRSLADTLQQSGGEDGGSVVFPPVLVQMLDRLESEILADRVSEESRRWLASCGLTVEQMQNQMDPVYTPARKIHLYHCDHRGLPLALVSTEGATEWCAEYDEWGNLLNEENPHQLQQLIRLPGQQYDEESGLYYNRHRYYDPLQGRYITQDPIGLKGGWNFYQYPLNPVQYIDSMGLASKYGHLNNGGYGARPNKPPTPDPSKLPDIAKQLRLPYPIDQASSAPNVFKTFFRALSPYDYTLYCRKWVKPNLTCTPQDDSQYPGMDTKTASDYLPQTNWPTTQLPPGYTCAEPYLFPDINKPDGPATAGIDDLGEILAKMKQRTSRGIRKLEHHHHHH	not soluble
MSLSFSMKIKNIPYYVATRVVKRIQSWLGLNTLGARAIVTNAEGHVLLVKHTYQPHWYLPGGGVKKGESTKAAVIRELHEEVGLVVAEQDVILFGIYHHKYLGVNDYPVIYIVKNFTSHVTHSGEIEQIGWFSLDALPEMVSPGTKRRLGEYFDNNPISEGHHHHHH	not soluble
RAQRKMSAQSLPAATPPTQKPPRIIRPRPPSRSRAAQSPGPPHNGSSPQELPRNSNDAPTPMCTPIFWEPPAASLKPPALLPPSASRASLDSQTSPDSPSSTPTPSPVSRRSASPEPAPRSPVPPPKPSGSPCTPLLPMAGVLAQNGSASAPGTVRRLAGRFEGGAEGRAQDADAPEPGLQARADVNGEREAPLTGSGSQENGAPDAGLACPPCCPCVCHTTRPGLELRWVPVGGYEEVPRVPRRASPLRTSRSRPHPPSIGHPAVVLTSYRSTAERKLLPLLKPPKPTRVRQDATIFGDPPQPDLDLLSEDGIQTGDSPDEAPQNTPPATVEGREEEGLEVLKEQNWELPLQDEPLYQTYRAAVLSEELWGVGEDGSPSPANAGDAPTFPRPPGPRNTLWQELPAVQASGLLDTLSPQERRMQESLFEVVTSEASYLRSLRLLTDTFVLSQALRDTLTPRDHHTLFSNVQRVQGVSERFLATLLSRVRSSPHISDLCDVVHAHAVGPFSVYVDYVRNQQYQEETYSRLMDTNVRFSAELRRLQSLPKCERLPLPSFLLLPFQRITRLRMLLQNILRQTEEGSSRQENAQKALGAVSKIIERCSAEVGRMKQTEELIRLTQRLRFHKVKALPLVSWSRRLEFQGELTELGCRRGGVLFASRPRFTPLCLLLFSDLLLITQPKSGQRLQVLDYAHRSLVQAQQVPDPSGPPTFRLSLLSNHQGRPTHRLLQASSLSDMQRWLGAFPTPGPLPCSPDTIYEDCDCSQELCSESSAPAKTEGRSLESRAAPKHLHKTPEGWLKGLPGAFPAQLVCEVTGEHERRRHLRQNQRLLEAVGPSSGTPNAPPP	soluble
MGSDKIHHHHHHMNVLASKDFRTEKRPLPFECIALVLQGGGALGAYQAGVYEALAEADIHPDWVAGVSIGAINSAIIAGNEPTERVPKLRAFWREISANPLLDWAAASPALAPTGTLPRLLFNQFSAACALVAGAPGFFSLRQPVPWLQADGSLEGTSFYETKHLKSTLERLVDFDRINAGRMRFSVGAVNVRSGNFVYFDNDQHTIRPEHVMASGSLPPGFPAVEIDGEFYWDGGLISNTPLQWVVEHGARQDTLAFQVDLWSARGEFPRNLSEVATRQKEIQYASRSRAHTDQFKQYQRARHTLASLLSKLPPELLDSEEATALSSIADHKVYKLVHLTYRSKQHEGHSKDHEFSRLSMEEHWRAGYFDAVRTLRHPEALLRPDNLEGVSTYDLAEDGRE	not soluble
MGSDKIHHHHHHMTKESILTFSQSKAEPAWLQEKRLAAFDKIDDLELPRIERVKFQRWNLGDGTITESPISANVPDFTSFGENPKLVQLGTQTVLESLPAKLVEQGVVFTDFHSALEEIPQVIEKYFATALKFDEDKLSAYHTAYFNSGSVLYVPDNVEIDLPLEGIFLQDSTSNVPLNKHVLIIAGRHAKVNYLERFETIGDSDVKATANIAVEVLAQAGSQVKFAAIDRLGNNITTYISRRGRLDNDASIDWALGVMNEGNVIADFDSDLIGNGSHAELKVVAASSGRQIQGIDTRVTNYGNNSIGHILQHGVILERGTLTFNGIGHIIKGAKGADAQQESRVLMLSDKARSDANPILLIDENEVTAGHAASIGQVDPEDMYYLMSRGIDKETAERLVIRGFLGTVITEIPVKAVRDEMIAVLDEKLDKR	not soluble
MNYNPEEQFRCTIIRGKAKNMLDNLLPAYANIIDDICPCDKASFVKDFNNRLIEILGEETTKKTLDNHRTEIAGKLFGMFYEDDEVIFPSGRTNKYIEDSDQPAFFKDICFKFQFPNGMDKLDKVIEKVGAKIQIRQFPYILQVLLTADNNNIQLSKDDIAYYVLNSLQVLQGKIKPIEVIEKIIEDRSNDITKKVRHPGKETSYSMQHIREQLNYLELANLIRIDGNLVKLNYREAENINYIAQFWGNKPEFNAYKYDFTSEDDKKSFFKDWQQYYSNVNSHKS	soluble
MTFIKRLEDAYETLLGNYPAGVSSTSTSKYNEIRKIVSEAFLIGENEVYVTGTSRRISNLDTRFAQGNQRNKHTRMAVAFISIPSVDDSELDELIIRTRNSAITTSSKFCNGEERGTIFDGILLFLVFEGETKVYPLAFLVFENDFELKEKAEELIPGIELKEYPRANQSPAQENNKSAKNEDEESAKSYVVFLDIEEDGSIVEFVEDKDKTYRIGDMIWTASHTNGSSAITRRLEVIEVVENLVVCKIKHKYNEPVDKNSLLKFVNIEQDLISFLDLHPNVQNGSEGFVSGDIVDENATTSSDDLPEDFENN	not soluble
GPGSMKVFHFHGTYRALGVRPKDFSLRAETVDGWRTPVLTSDWERHCDVEGIVTPALSSAGNAASALEPKGPVQVVVATFSLPPGSYATSVLREFCIRTTENGQGNDLETEDEYSSCADTMSHDGCQERRNGRRHHRPASRCIVTRSMRICSLCRSLSPLSLLLLTYVM	soluble
MIIEKKIKNYTVFVKKDGEKYIEIFKDFLSYNHQVIKVFRNIEDTKVVLINTDYGKYILKVFSPKVKNTERFFKSLVKGDYYEKLFHQTDRVRREGFAALNDFYLLAEIKTLRYVKTYVMIIEYIEGIELVDMPEISDEVRGKIKQSIYSLHQHGMVSGDPHKGNFILQGNEIRIIDLSGKRPSRQRKAKDRIDLERHYGIKNNVRDIGFYLLIYKKKLRNFLRRIKGKEKRLEHHHHHH	not soluble
